Data as given in the DeepSol protein solubility set.

Assay: soluble on expression in E. coli; label from the status in PepcDB or PDB records

Question: Which “soluble on expression in E. coli” value does the source give for “AHHHHHHGSALSDKLDLVNPSEIRKLFDLAAGMKDVISLGIGEPDFDTPAHIKEYAKEGLDKGLTHYGPNVGLPELREAIAEKLKKQNGIEADPNSEIMVLVGANQAFLMSLATFLKDGEEVLIPSPMFVSYAPAVILAGGKPVEVPTYEDNEFRINVDDLKKHVSEKTRALIINSPNNPTGAVLTKKDLEEIADFANEHDLMIISDEVYEHFIYDGAKHYSIAALDGMFGRTITVNGFSKTFAMTGWRLGFVVAPSWVIEKMVKFQMYNATCPVTFIQYAAAKALRDERSWKAVEEMRKEYERRRNLVWKRLNEMGLPTVEPKGAFYIFPRIKDTGLSSKEFSELMLMEAKVAVVPGSAFGRAGEGYIRISYATAYEKLEEAMNRMEKVLKEKKLI” here?
Answer: The value was “soluble”.

Question: With “MDLLVVVPHPDDESFGAGGALLLAKEAGLKTGVLTLTRGEAGRTLGLCPPKELPQVRVEELKRAAAVLQVDYLEVLDYPNALPEGAQGERGPATGRGLADHPEAVEAIRTRLLRLRPRFVLTFPPDGINGHPDHVAASRYAREAAQGLAQVVYLVRPDGPWPVTHRLRLPERVLARKLQAIAQHKTQALSVLKFLEMFPERLWTETFHLPGASGLREGPWW” as the sequence, how does the “soluble on expression in E. coli” value read?
Answer: Its value is “soluble”.

Question: For “MTKSELMVRLAEVFAAKNGTHLLAKDVEYSVKVLVDTMTRSLARGQRIEIRGFGSFDLNHRPARIGRNPKTGERVEVPEKHVPHFKPGKELRERVDLALKENAN”, which “soluble on expression in E. coli” value is on record?
Answer: The value was “not soluble”.

Question: Which “soluble on expression in E. coli” value does the source give for “LKDTLHNSELDDAERSSSDINNLFHSKPVKDISALDLNASLGNFQEIIIYDEHNNKLFETSNDNTVRVEPGYEHRYFDRVIKKRYKGIEYLIIKEPITTQDFKGYSLLIHSLENYDNIVKS” here?
Answer: The value was “not soluble”.

Question: For “GSASPTPPYLKWAESLHSLLDDQDGISLFRTFLKQEGCADLLDFWFACTGFRKLEPCDSNEEKRLKLARAIYRKYILDNNGIVSRQTKPATKSFIKGCIMKQLIDPAMFDQAQTEIQATMEENTYPSFLKSDIYLEYTRTGSESPKV”, which “soluble on expression in E. coli” value is on record?
Answer: Its value is “soluble”.

Question: Which “soluble on expression in E. coli” value does the source give for “MMKPPSAIMETALYADDLDAAEAFYRDVFGLEMVLKLPGQLVFFKCGRQMLLLFDPQESSRADANNPIPRHGAVGQGHFCFYADDKAEVDEWKTRFEALEIPVEHYHRWPNGSYSVYIRDPAGNSVEVGEGKLWGFE” here?
Answer: The value was “not soluble”.

Question: For “MKLLLIGYGNVGKAFRRLLHEKKDNYPILQGVEIAGIITRQGLMVGDKENFSPDKQLTVLEAIDYINPDVIVDMSVPNYKDGEPSVSAYIKALSRKIHVITVNKAPLALKFREIFEVAEKTGAKIGFQGTVMSGTPSINLFRIQPVAEVSRIRGILNGTTNYILTRIYEGLSFNEALKEAKEKGYAEEDPTLDLNGFDAAAKLTILSNFIMNRSLKLGDFKFKGITEITNEEIRRAKSEGKKIKLIAYADNYVVQVSPQIIGPQDPLYYIDGVENALEIQNEIQRIIIRGPGAGPINAAYGALSDLVLLLEGCL”, which “soluble on expression in E. coli” value is on record?
Answer: The value was “not soluble”.

Question: Which “soluble on expression in E. coli” value does the source give for “MNTSTTKPFAWPAHVFKEYDIRGRAGEELDESFAYWLGRAFADMMQKEGEKRAVVGHDNRLSSPGLHRALKDGLLDGGCDVVDIGLSTTPMFYYSLYYTNIPCGMIITASHNPGDENGFKIAMGKTTIYGERIQALRRAMERLSQEQPRPETARGREETLDLAPAYIKMLKEKIQLGPRKLKVVVDCGNGTPSIIAPQVLKEWGCDVVPLYCESDPTFPNHHPDPVVPENLTALIEMVRKEQADLGIAFDGDGDRIGVVDETGAIRWGDQLMVLFWREILKRYPGADAPVEVKCSQALVEEIERLGGKPFFHRTGHSHVKATLRRRPEIPFAGEMSGHLFFNDEFYGYDDALYAAGRLLRLLSHDERPLSEWFADVPRYAATPETRVACPEEKKPAAIAAVKNQFAGRYPVVDVDGARIQFPEGWGLVRPSNTQPILVLRAEAKTEEALAEIKRQLADCLHALELCIDW” here?
Answer: Its value is “soluble”.

Question: With “SGAVTDDEVIRKRLLIDGDGAGDDRRINLLVKSFIKWCNSGSQEEGYSQYQRMLSTLSQCEFSMGKTLLVYDMNLREMENYEKIYKEIECSIAGAHEKIAECKKQILQAKRIRKNRQEYDALAKVIQHHPDRHETLKELEALGKELEHLSHIKESVEDKLELRRKQFHVLLSTIHELQQTLENDEKLSEVEEAQEASMETDPKP” as the sequence, how does the “soluble on expression in E. coli” value read?
Answer: The value was “soluble”.

Question: With “MGSDKIHHHHHHGGCVRDVIDDVPGTDEDYAADKKDVVLIRMGTNDAEVKDITSRLFNNIPSSWEIGKKTIVDYDKMKDPETELNADIKNPKIYMTVILNIDDVISGKYPISLFRMLKFYKRDFYVIATQSTPEQKEEMLSLIGVYMEAGYYAINYDNVQHYRIFPSADPYAKDNMIGKGVASFNQKLLTRSADTLPEGNDPDPGYNAQMADKEALKRIEIYNRIYGYAQGDMNYSMQAVPYKMKPGAAPDVIIDNSWAIDAYNFQIYSKNNNCILSITNNAGNGFTANIKDYTTPKGANVYAYIWNLMREASSEITVHSDGGIFREISYQPQTVNHGASYTENSFWKVSVSVSPTKLEDKPWEAFKVSFGKESSTEVSYKTKSMDYSCKGQFGNGLYSKLWQFIPGEFYDRAEAFVYETSQGLRWIDAAQAMTPNYVTWGGWTLRQNYLNHINNSMKLHQQQCIYSLESDAQPGVVSVAITDAIDLQKTYVHYNCGIRYGHDSARTDLKMSKMVWIDFRQWDN” as the sequence, how does the “soluble on expression in E. coli” value read?
Answer: Its value is “not soluble”.

Question: For “MNPLLTDSRRQALRSASHWYAVLSGERVSPQQEARWQQWYEQDQDNQWAWQQVENLRNQLGGVPGDVASRALHDTRLTRRHVMKGLLLLLGAGGGWQLWQSETGEGLRADYRTAKGTVSRQQLEDGSLLTLNTQSAADVRFDAHQRTVRLWYGEIAITTAKDALQRPFRVLTRQGQLTALGTEFTVRQQDNFTQLDVQQHAVEVLLASAPAQKRIVNAGESLQFSASEFGAVKPLDDESTSWTKDILSFSDKPLGEVIATLTRYRNGVLRCDPAVAGLRLSGTFPLKNTDAILNVIAQTLPVKIQSITRYWINISPL”, which “soluble on expression in E. coli” value is on record?
Answer: The value was “soluble”.

Question: For “PVAMKEAQKRLGDKVEYTTDMYDAVRGAEALFHVTEWKEFRMPDWSALSQTMAASLVIDGRNVYELPADSDFTLLNIGNSAIESASSK”, which “soluble on expression in E. coli” value is on record?
Answer: Its value is “not soluble”.

Question: Which “soluble on expression in E. coli” value does the source give for “MGSDKIHHHHHHMDAIARELRTSRSTVSRLLSAARETGLVQIQIRNPLDTGPELENMIRTQYRVDVHVVPVLDTLNEAETLDRVAMQAARTIGPLVDSNAIIGVAWGSTLSAVSRHLTRKITHDSVIVQLNGAGNMQTTGITYASDIMRRFGSAYGARVEQFPVPAFFDHAATKTAMWNERSVQRILELQSRMSIAIFGVGSVDADYPSHVYAGGYLDEDDLNILANSDVVGDVATVFFRGDGSSDGITLNERSTGPALAQLRQVRRRICVVSGASKINGLRGALAAGLATDLILDEATARRLVSFDGLS” here?
Answer: Its value is “not soluble”.

Question: Which “soluble on expression in E. coli” value does the source give for “MGSDKIHHHHHHMSEATLLSYTKKLLASPPQLSSTDLHDALLVILSLLQKCDTNSDESLSIYTKVSSFLTALRVTKLDHKAEYIAEAAKAVLRHSDLVDLPLPKKDELHPEDGPVILDIVGTGGDGQNTFNVSTSAAIVASGIQGLKICKHGGKASTSNSGAGDLIGTLGCDMFKVNSSTVPKLWPDNTFMFLLAPFFHHGMGHVSKIRKFLGIPTVFNVLGPLLHPVSHVNKRILGVYSKELAPEYAKAAALVYPGSETFIVWGHVGLDEVSPIGKTTVWHIDPTSSELKLKTFQLEPSMFGLEEHELSKCASYGPKENARILKEEVLSGKYHLGDNNPIYDYILMNTAVLYCLSQGHQNWKEGIIKAEESIHSGNALRSLEHFIDSVSSL” here?
Answer: Its value is “not soluble”.

Question: With “MGSDKIHHHHHHMNAPLNHPLPLLDLDVLRTFVAIAETGSFTTAANAVFRTPSAVSMQIKKLEDILGRSVFARDARSVSLTTDGEMLLGYARRLLSINREVVSKFIIPEIVGVVRLGSPDDYGERVLPHVLKRFAQSHPSIAVDVTIDQSSNLRRRMDDRALDITLLTNSYKTSALGAEVLLTEPIVWAGAKGGCAHLREPLPVSLWEEGCAWRAGALEALGREGRNYRVAYMSAHTAGQRAAIMADLAVAPLPRSFLGNDMVELCPKDGMPDIGTYNLAMVVAPDASAPVKAVADHIRATFEVFRETGKF” as the sequence, how does the “soluble on expression in E. coli” value read?
Answer: The value was “not soluble”.

Question: With “MGSDKIHHHHHHFNQYRENVELTAQRLEATYRASNILNLGVACLKKHFGFLGMEINWSTGSVTWFDDFRKRVLLQSDGDAWENVFSLLDTEKYYNLSSDIDFSTEASKLGFSNFEAVAIPFKNNPFFALLVVRAQVGKAVVYKYAVLSSDFLNKYAYFTEKETRPDGDKIYFITQDIIDGPFRSNDVIHVKGEPLFKGSVEFKDIDLEAGEGPRYENPPPKYLTEEDIKKYNIEKIKDYYSQQIERIVKPASEVVLSSEPVGIELPSINEFVESWEEKENDKTIYYKKQREIVYTLEFNTPKGSSGNDYLIKVSYKEVYRIYKSEDQEKWNFVREEVLGEGELFHIKSKPNSDQYHLVLQGNEAREFLGLDRNEYDIYFNGVIKTDNDVYLKNMSEGNIKPMFVDGRYTIVANNIYIEDHIIYNDYREVLEEIADKEKISGNSDQKIAQAVIRKLGVDGNIEEDYSELLKNHESDDFLNLVAYKNVVITDKKPNMKIFASIYAFTGSFYVKGYNEKDFLKNNERELTERELTIFGSLAQYVRGAVGTFYWSRDGKPTIKTGYRKNYIYDWRILKGFSVFGTPTVPKESNILNVREVY” as the sequence, how does the “soluble on expression in E. coli” value read?
Answer: Its value is “not soluble”.

Question: For “MGKKKVKFLQKEELRTLLQSLDLQSGINNDWFLLLIAKTGMRYAEALALTPSDFDWVNATVTIDKSWDYKTHRGFKKTKSTASDREIAIDWQIVGQFKPLIQDLPANDPIFIEKTERGTYKKQYNSTMNNYLEAKCKTLTITVISLHALRHTHASVLLAEGVSIHTISARLGHADVGVTQEIYAHVLDELQKKDDQKMMSVLMQIALEHHHHHH”, which “soluble on expression in E. coli” value is on record?
Answer: Its value is “not soluble”.

Question: Which “soluble on expression in E. coli” value does the source give for “MQLRGEVTPHIGRHAFAVLAILKGMLLETLQKVFGHKSITYVLRIHSLVRRRRSNLFLEVAHLYDQRADQLSQLLIRACFNNCQFHTKILFKILNMRQSNAHPISFPNR” here?
Answer: Its value is “not soluble”.

Question: With “MVGFLKHLVPKRFRKKELVIPVVRMQGAIMAGGNQFRPALNLASYAPLLEKAFAVKDAPAVAISLNSPGGSPVQARMIYNRIRQLAEEKDKKVLIFVEDVAASGGYMIALAGDEIIADPTSIVGSIGVVSGGFGFPEMLRKIGVERRVYTAGENKVILDPFQPEKEGDIDYLKSLQVEIHNVFIDMVKMRRGSKLKGDDALFSGLFWTGMRGLDLGLIDGLGDMREVLRRRYGTKVKLQLISGGRSLFGKKVPGVNMALGLNAERLAAGAVSGLAEVAEEKALWSRFGLLEHHHHHH” as the sequence, how does the “soluble on expression in E. coli” value read?
Answer: The value was “soluble”.

Question: With “ALNPNEHQLIKNVFGFIDVTVRQVMTPRTSINAIDIDLPLEYVLNKIVNEGYSRLPVYKDNIDNIIGILYTKDLLKMMNKGEQIKLQSAMRQPYFVPETKKINELLKNLQAKHLHMAIIIDEFGGVSGITTIEDIIEELVGEIQDEHDDEAPVVEQVSA” as the sequence, how does the “soluble on expression in E. coli” value read?
Answer: Its value is “not soluble”.
